# Source: article PMC5493754, “Myosin 7 and its adaptors link cadherins to actin” (Nature Communications, 2017)
# T1: Myosin 7b MF1.SH3 (human, UniProt Q6PIF6 958-1586)
# T1 construct: also called M7b MF1.SH3; Myo7b MF1.SH3; source: E. coli (BL21-AI, BL21 (DE3) Rosetta or BL21-Gold (DE3)), purified (Histrap, CaptoQ, gel filtration)
# T1 sequence: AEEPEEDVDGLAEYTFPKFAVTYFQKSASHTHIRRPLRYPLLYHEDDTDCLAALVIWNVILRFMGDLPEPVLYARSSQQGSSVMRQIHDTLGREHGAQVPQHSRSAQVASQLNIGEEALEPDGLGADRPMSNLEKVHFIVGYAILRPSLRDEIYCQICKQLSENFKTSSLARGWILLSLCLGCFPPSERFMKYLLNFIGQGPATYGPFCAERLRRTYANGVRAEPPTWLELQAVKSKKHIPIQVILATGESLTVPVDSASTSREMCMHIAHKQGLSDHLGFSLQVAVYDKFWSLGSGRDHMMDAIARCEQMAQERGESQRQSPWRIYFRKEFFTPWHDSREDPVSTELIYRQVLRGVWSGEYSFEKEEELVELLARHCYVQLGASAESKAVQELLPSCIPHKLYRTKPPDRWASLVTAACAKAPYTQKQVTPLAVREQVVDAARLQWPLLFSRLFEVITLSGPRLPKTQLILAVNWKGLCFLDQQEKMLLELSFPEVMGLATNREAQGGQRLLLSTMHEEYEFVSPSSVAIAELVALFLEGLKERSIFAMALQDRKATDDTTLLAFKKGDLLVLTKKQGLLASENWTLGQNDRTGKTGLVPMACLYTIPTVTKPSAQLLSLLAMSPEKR
# T2: Myosin 7b MF1.SH3 A1128E (human, UniProt Q6PIF6 958-1586, A1128E)
# T2 construct: Myosin 7b, human, MF1.SH3, residues 958-1586 of UniProt Q6PIF6; also called M7b MF1.SH3 A1128E; source: E. coli, purified similarly as wild type (Histrap, CaptoQ, gel filtration)
# T2 sequence: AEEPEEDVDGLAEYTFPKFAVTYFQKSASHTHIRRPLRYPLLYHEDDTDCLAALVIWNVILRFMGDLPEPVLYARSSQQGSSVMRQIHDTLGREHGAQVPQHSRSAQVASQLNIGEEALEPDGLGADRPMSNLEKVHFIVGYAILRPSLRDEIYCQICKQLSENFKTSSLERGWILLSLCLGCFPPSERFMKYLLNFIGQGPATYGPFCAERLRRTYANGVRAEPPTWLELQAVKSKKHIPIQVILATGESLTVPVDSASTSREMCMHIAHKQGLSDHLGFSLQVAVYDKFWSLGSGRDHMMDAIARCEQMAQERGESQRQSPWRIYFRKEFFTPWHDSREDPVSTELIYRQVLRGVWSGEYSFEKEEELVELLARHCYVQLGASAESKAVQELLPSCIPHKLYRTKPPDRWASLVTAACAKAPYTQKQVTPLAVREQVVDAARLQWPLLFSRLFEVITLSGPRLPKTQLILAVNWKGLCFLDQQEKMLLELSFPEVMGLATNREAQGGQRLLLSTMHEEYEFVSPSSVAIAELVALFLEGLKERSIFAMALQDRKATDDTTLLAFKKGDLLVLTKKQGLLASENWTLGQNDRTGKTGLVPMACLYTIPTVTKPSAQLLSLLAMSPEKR
# T3: Myosin 7a MF1.SH3 (human, UniProt Q13402-1 991-1692, residues 1523-1560 were deleted from MF1)
# T3 construct: Myosin 7a, human, N-terminal MyTH4-FERM domain and SH3, residues 991-1692 of UniProt Q13402-1; residues 1523-1560 deleted; Thrombin site of the vector replaced by an SSG linker; also called M7a MF1.SH3; Myo7a MF1.SH3; source: E. coli (BL21-AI, BL21 (DE3) Rosetta or BL21-Gold (DE3)), purified (Histrap, CaptoQ, gel filtration)
# T3 sequence (looked up): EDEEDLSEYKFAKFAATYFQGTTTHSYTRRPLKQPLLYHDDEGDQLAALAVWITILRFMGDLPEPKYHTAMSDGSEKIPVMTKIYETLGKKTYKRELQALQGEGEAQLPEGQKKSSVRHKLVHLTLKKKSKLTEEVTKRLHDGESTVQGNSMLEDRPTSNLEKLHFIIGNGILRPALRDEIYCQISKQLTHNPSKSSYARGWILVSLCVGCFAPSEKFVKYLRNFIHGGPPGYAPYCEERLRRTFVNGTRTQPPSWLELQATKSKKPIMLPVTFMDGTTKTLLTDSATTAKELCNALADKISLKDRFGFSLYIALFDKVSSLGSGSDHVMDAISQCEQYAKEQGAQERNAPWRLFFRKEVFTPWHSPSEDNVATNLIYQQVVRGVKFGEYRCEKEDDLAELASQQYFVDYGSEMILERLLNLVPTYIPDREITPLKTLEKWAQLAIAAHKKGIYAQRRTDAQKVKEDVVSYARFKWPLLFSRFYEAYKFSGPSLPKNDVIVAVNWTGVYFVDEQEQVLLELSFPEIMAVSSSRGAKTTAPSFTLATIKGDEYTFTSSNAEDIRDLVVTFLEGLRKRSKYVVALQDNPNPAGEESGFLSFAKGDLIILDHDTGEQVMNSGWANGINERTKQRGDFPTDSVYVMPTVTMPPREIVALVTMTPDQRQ
# T4: Harmonin NPDZ1.PDZ2 (human, UniProt Q9Y6N9-1 1-301)
# T4 construct: Harmonin-a1 (USH1C), human, N-terminal domain, PDZ1 and PDZ2, residues 1-301 of UniProt Q9Y6N9-1; source: E. coli BL21 (DE3) Rosetta, purified (Glutathione Sepharose 4B, size-exclusion chromatography)
# T4 sequence (looked up): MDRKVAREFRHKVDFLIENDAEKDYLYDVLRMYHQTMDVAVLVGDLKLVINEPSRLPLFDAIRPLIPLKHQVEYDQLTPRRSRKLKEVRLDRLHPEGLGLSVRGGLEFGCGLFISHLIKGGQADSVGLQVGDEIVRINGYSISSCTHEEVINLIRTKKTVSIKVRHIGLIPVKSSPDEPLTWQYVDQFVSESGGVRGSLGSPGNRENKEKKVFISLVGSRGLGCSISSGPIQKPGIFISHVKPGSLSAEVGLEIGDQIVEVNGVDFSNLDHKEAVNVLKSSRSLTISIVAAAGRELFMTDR
# T5: Full length (FL)-harmonin (harmonin-a1) (human, UniProt Q9Y6N9-1 1-552)
# T5 construct: Harmonin-a1 (USH1C), human, residues 1-552 of UniProt Q9Y6N9-1; also called FL-harmonin-a; source: E. coli BL21 (DE3) Rosetta, purified (Glutathione Sepharose 4B, size-exclusion chromatography)
# T5 sequence (looked up): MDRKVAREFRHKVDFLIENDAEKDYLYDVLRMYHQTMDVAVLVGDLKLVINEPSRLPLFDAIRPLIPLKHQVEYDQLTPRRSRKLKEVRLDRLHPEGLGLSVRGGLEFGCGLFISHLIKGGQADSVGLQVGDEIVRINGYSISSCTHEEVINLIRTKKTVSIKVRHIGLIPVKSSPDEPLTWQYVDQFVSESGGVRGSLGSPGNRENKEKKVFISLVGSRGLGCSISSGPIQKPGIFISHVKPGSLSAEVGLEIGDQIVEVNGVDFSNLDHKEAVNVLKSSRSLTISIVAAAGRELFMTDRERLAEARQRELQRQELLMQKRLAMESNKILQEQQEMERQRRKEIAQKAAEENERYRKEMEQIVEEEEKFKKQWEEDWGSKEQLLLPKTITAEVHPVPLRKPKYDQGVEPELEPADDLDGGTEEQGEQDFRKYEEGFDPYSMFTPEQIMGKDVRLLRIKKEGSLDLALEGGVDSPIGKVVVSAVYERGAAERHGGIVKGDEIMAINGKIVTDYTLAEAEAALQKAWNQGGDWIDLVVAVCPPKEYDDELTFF
# B1: YFP-ANKS4B_(CEN-PBM) (domain or fragment, human, UniProt Q8N8V4 259-417, looked up)
# chain: SVHHESILNRPGLGSIVFRRNRISSPEDISDSKREFGFKLPSELLQRQGASEADEGAADEEGEENGLKDDLPWDDDEVEWEEDVVDATPLEVFLLSQHLEEFLPIFKREQIDLEALLLCSDEDLQSIQMQLGPRKKVLNAINRRKQVLQQPGQLVDTSL
# notes: ANKS4B, human, CEN regions, SAM domain and PBM, residues 259-417 of UniProt Q8N8V4; source: E. coli (BL21-AI, BL21 (DE3) Rosetta or BL21-Gold (DE3)), purified (Histrap, CaptoQ, gel filtration); not shown: YFP, N-terminal, kept
# B2: YFP-SANS_(CEN-PBM) (domain or fragment, UniProt Q495M9 300-461, looked up)
# chain: DSGHDSLFTRPGLGTMVFRRNYLSSGLHGLGREDGGLDGVGAPRGRLQSSPSLDDDSLGSANSLQDRSCGEELPWDELDLGLDEDLEPETSPLETFLASLHMEDFAALLRQEKIDLEALMLCSDLDLRSISVPLGPRKKILGAVRRRRQAMERPPALEDTEL
# notes: The full-length SANS gene was synthesised; source: E. coli (BL21-AI, BL21 (DE3) Rosetta or BL21-Gold (DE3)), purified (Histrap, CaptoQ, gel filtration); not shown: YFP, N-terminal, kept
# B3: YFP-FL-harmonin-ΔCter (domain or fragment, human, UniProt Q9Y6N9-1 1-542, looked up)
# chain: MDRKVAREFRHKVDFLIENDAEKDYLYDVLRMYHQTMDVAVLVGDLKLVINEPSRLPLFDAIRPLIPLKHQVEYDQLTPRRSRKLKEVRLDRLHPEGLGLSVRGGLEFGCGLFISHLIKGGQADSVGLQVGDEIVRINGYSISSCTHEEVINLIRTKKTVSIKVRHIGLIPVKSSPDEPLTWQYVDQFVSESGGVRGSLGSPGNRENKEKKVFISLVGSRGLGCSISSGPIQKPGIFISHVKPGSLSAEVGLEIGDQIVEVNGVDFSNLDHKEAVNVLKSSRSLTISIVAAAGRELFMTDRERLAEARQRELQRQELLMQKRLAMESNKILQEQQEMERQRRKEIAQKAAEENERYRKEMEQIVEEEEKFKKQWEEDWGSKEQLLLPKTITAEVHPVPLRKPKYDQGVEPELEPADDLDGGTEEQGEQDFRKYEEGFDPYSMFTPEQIMGKDVRLLRIKKEGSLDLALEGGVDSPIGKVVVSAVYERGAAERHGGIVKGDEIMAINGKIVTDYTLAEAEAALQKAWNQGGDWIDLVVAVCPP
# notes: Harmonin-a1 (USH1C), human, residues 1-542 of UniProt Q9Y6N9-1; also called ^YFPFL ΔCter; source: E. coli BL21 (DE3) Rosetta, purified (Glutathione Sepharose 4B, size-exclusion chromatography)
# Experiments:
# [1] = biological target: YFP-Harmonin-a PDZ3c (human) (UniProt Q9Y6N9); assay: MST; YFP-fused partner constant at 100 nM, non-fluorescent protein titrated (16 two-fold dilutions); 20 mM Hepes pH 7.0, 100 mM NaCl, 1 mM EGTA, 0.5 mM TCEP, 0.05% Tween 20; Monolith NT.115
# [2] = biological target: YFP-ANKS4B_(CEN-PBM) (human) (UniProt Q8N8V4); assay: as above
# [3] = biological target: YFP-SANS_(CEN-PBM) (UniProt Q495M9); assay: as above
# [4] = biological target: T1, Myosin 7b MF1.SH3; assay: as above; conditions: both partners purified
# [5] = biological target: T2, Myosin 7b MF1.SH3 A1128E; assay: as above; conditions: both partners purified
# [6] = biological target: T3, Myosin 7a MF1.SH3; assay: as above; conditions: both partners purified
# [7] = biological target: T4, Harmonin NPDZ1.PDZ2; assay: as above; conditions: both partners purified
# [8] = biological target: T5, Full length (FL)-harmonin (harmonin-a1); assay: MST; as a1 but 150 mM NaCl (for FL-Harmonin-a); YFP-fused partner constant at 100 nM, non-fluorescent protein titrated; conditions: both partners purified
Molecule,Kd [4],Kd [5],Kd [6],Kd [7],further results
Myosin 7b MF2 R1921E-F1923V (from UniProt Q6PIF6 1605-2116) (domain or fragment),,,,,Kd [1]: > 100 µM
Myosin 7b MF1.SH3 K1194E-K1195E R1171E-R1172E (from UniProt Q6PIF6 958-1586) (domain or fragment),,,,,Kd [2]: 3.1 µM; Kd [3]: 6.6 µM
B1,4.3 ± 0.8 µM,13.1 ± 0.7 µM,4.9 ± 0.7 µM,0.009 µM,
B2,5.4 ± 1.6 µM,18.2 ± 2.8 µM,0.13 ± 0.02 µM,0.017 µM,
B3,,,,,Kd [8]: 2.5 µM
